Measurements as given in the nanobody polyreactivity screen of Harvey et al. (2022).

Assay: yeast display, Sf9 membrane polyspecificity reagent, FACS + sequencing; frameworks hold sequencing errors
In short: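 A synthetic nanobody library was expressed on Saccharomyces cerevisiae BJ5465 by galactose induction for 36–48 hours. The library was stained for 1 hour at 4 °C with 10% biotinylated, detergent-solubilized Sf9 membrane reagent and enriched with streptavidin microbeads before FACS. Low and high (top ~1%) gates were set on anti-HA fluorescence for expression and streptavidin fluorescence for reagent binding, and each polyreactivity label reflects the gate of origin.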

| Sequence | polyreactivity (PSR sort gate) |
| --- | --- |
| QVQLVESGGGLVQAGGSLRLSCAASGFTCKYYAMGWYRQAPGKERELVASINWSGGRTSYADSVKGRFTISRDNAKNTVYLQMNSLKREDTAVYYCARTPAGRGEYWGQGSQVTVSS | low polyreactivity |
| QVQLVESGGGLVQAGGSLRLSCAASGRIFARYVMGWYRQAPGKERELVAAISRRAGNTYYADSVKGRFTISRDNAKNTVYLQMNSLKPEDTAVYYCAVRYSYYALSTSRYGYWGQGTQVTVSS | high polyreactivity |
| QVQLLESGGGLVQAGGSLRLSCAASGFIFYEYAMGWYRQAPGKERELVAAITSGGSTDYADSVKGRFTISRDNAKNTVYLQMNSLKPEDTAVYYCNADLFTGYYWYNYWGQGTQVTVSS | low polyreactivity |
| QVQLVESGGGLVQAGGSLRISCAASGRIFSWYVMGWYRQAPGKERELVAAISSGGSTYYADSVKGRFTISRDNAKNTVSFQMNSLKPEDTAVYYCAVRPYVYRIGASRLDYWGQGTQVTVSS | high polyreactivity |
| QVQLVESGGGLVQAGGSLRLSCAASGSIFAAYAMGGYRQAPGKERELVATIRWTSGSTYYADSVKGRFTISRDNAKNTVYLQMNSLKPEDTAVFYCAAQKNKYYWPRFGYWGQGTQVTGSS | high polyreactivity |
| QVQLVESGGGLVQSGGSLRLSCAGSGSTFHYNAMGWYRQAPGKEREFVAAISRTGTSTYYADSVKGRFTISRDNAKNTVYLQMNSLKPEDTAVYYFAAKSLRSGMGYWGQGTQVTVSS | high polyreactivity |
| QVQLVESGGGLVQAGGSLRLSCAASGRTFRYNAMGWYRQAPGKERELVATISSSGGSTSYADSVKGRFTISRDNAKNTVYLQMNSLKREDTAVYYCNKRRLVAPGNGMDSWGQGTQVTVSS | low polyreactivity |
| QVQLVESGGGLVQAGGSLRLICAASGRTFPYNAMGWSRQAPGKERELVARITSGGRTYYADSVKGRFTISRDNAKNTVYLQMNSLKPEDPAVYYCAAETLRYYWKSYDWGQGTQVTVSA | high polyreactivity |
| QDQLVESGGGLVQEGGSLRLSCAASVSIQAPYAMGWYRQAPGKERELVAAISSRGGSTYYADSVKGRFTISRDNAKNTVYLQMNSLKPEDTAVYYCAAYVYLQVEYDYWGQGTQVTVSW | low polyreactivity |
| QVQLEESRGGIVQAGGSLRLSCAASGFTFSTYAMGWYRPAPGKELELVASISRSGNTNYADSVKGRFTISRDNAKNTVYLQMKSLKPEDTAVYSSAAELVYRRVRYDYWGQGTQVTVSS | high polyreactivity |
| QVQLVESGRGLVQAGCSLRLSCASSGFIFVFNAMGRYRQAPGKERELVAAINGGDITNYAYSVKGRFTISRDNAKNTVYIQMNSLKPEDTAVYYCAADGEDSLWSGYDYDYWGLGTQVTVSS | low polyreactivity |
| QVQLVESRGGLVQAGGSLRLSCAASGRIFGDNAMGWSRQAPGKEREFVATINGSGGSTYYADSVKGRFTISRDNAKNTVYLQMNSLKPEDTAVYYCFVYGYVPYNYWGQGTQVTVSS | low polyreactivity |
| QVQLVESGGGLVQAGGSLRLSCAASGRTFYIYTMGWYRQAPGKERELVAAISGRGGRTYYADSVKGSFTISRDNAKNTVYLQMNSLKPEDTAVYYCARGGRVRYDYWGQGTQVTVSS | low polyreactivity |
| QDHLVDSGGGLVQAGGSLRLSCDASGRIFRWYTMGWYRQAPGKERELVATITSSGITSYADSVKGRFTISRDNAKNTDYLQMNSLKPEDTAVYYCAADHYYYIHGYDYWGQGTQVTVSS | high polyreactivity |
| QVQLVESGGGLVQAGGSLRLSCAASGSTFVSYDMGWYRQAPGKERELVATIRRGGSTYYADSVKGRFTISRDNAKNTVYLQMNSLKPEDTAVYYCAAQQYAKYGWYAYDYWGQGTQVTVSS | low polyreactivity |
| QVQLVESGGGLVQAAGSLRLICAASGSIFTRYTMGWYRQAPGKERELVAVISDSSGRTYYADSVKGRFTISRDNAKNTVYLQMNSLKPEDTAVYYCAAEYSDIYEYWGQGTQVTVSS | low polyreactivity |
| QVQLVESGGGLVQAGGSLRLSCAASGFIFDWYAMGSYSQAPGKEREFVAAINWSGGSTYYADSVKGRFTISRDNAKNTVYLQMNSLKPEDTAVYYCAAYRPYSSSEGVYWGQGTQVTVSS | high polyreactivity |
| QVQLVESGGGLVQAGGSLRLSCAASGSIFHAYAMGWYRQAPGKERELDAAISYTGGTYYADSVKGRFTISRDNAKNTVYLQMNSLKPEDTAVYYCAIVTRYLHIGVPYVEFDYWGQGTQVTVSS | low polyreactivity |
| QVQLVESGGGLVQAGGSLRLSFDASGSIFSFYAMGGYSQAPGKERELVAAIRWSGGRTYYADSVKGRFTISRDPAKNTVYLQMNSLKPEDTAVYYCAADKYLDYDYWGQGTQVTVSS | high polyreactivity |
| QVQLVESGGGLVQAGGSLRLSCAASGSIFRFYVMGWYRQAPGKEREMVAAISIGGSTNYADSVKGRFTISLDNAKNTVFLQMNSLKPEDTAVYYCAADYWYGAGMPHGTEFDYWGQGTQVTVSS | low polyreactivity |
| QVQLVESGGGLVQAGGSLRLSCAASGSTFYGYAQGWYRQAPRKERELVAAISRTGTTNYADSVKGRFTISRDNAKNTVYLQMNSLKPEVTAVYYCNVRGYEVWYPLAYDYWGQGTQVTVSS | high polyreactivity |
| QVQLVESGGGLVQAGGSLRLSCAASGSTFFHYVMGWYRQAPGKEREVVAAIRWSGGRTRYADSVKRRFTISRDNAKITVYLQMNSLIPEDTAVFYCAAYRLSKPFYKYDYWGQGTQVTVSS | high polyreactivity |

| Sequence | polyreactivity (PSR sort gate) |
| --- | --- |
| QVQLVESGGGLVQAGGSLRLSCAASGFIFSFDNAMGWYRQAPGKERELVAAISSGTTTHYADSVKGRFTISRDNAKNTVYLQMNSLKREDTAVYYCAAGTATDVASIGATKDYDYWGQGTQGTVSS | low polyreactivity |
| QVQLVESGGGLVQAGGSLRLSCAASGSTFGNYAMGWYRQAPGKERELVAVITSAGSTYYADSVKGRFTISRDNAKNTVYLQMNSLKPEDTAVYYCNTGKHVRYYYWGQGTQVTVSS | low polyreactivity |
| QVQLVESGGGLVQAGGSLRLSCAASGSTIWSYAMGWYRQAPGKERELVASITWSGGSTYADSVKGRFTISRDNAKNTVYLQMNSLKPEDTAVYYCARESTLTYYSDDFDYWGQGTQVTVSS | low polyreactivity |
| QVQLVESGGGLVQAGGSLRLSCAASGSTFYPYAMGWYRQAPGKERELVADITNSGSTYYADSVKGRFTISRDNAKNTVYLQMNCLKPEDTAVYYCSASVYSVADYYYWGQGTQVTVSS | low polyreactivity |
| QVQLVGVRGRLVQAGGSLRLSCAASGRTIYAYAMGWNRQAPRKERELVATITSGGSTNYADSVKGRFTISRDNAMNTFYLLMNSLKPEDTAVYYCGAGPRGYKKYDYWGHGTQVTVSS | low polyreactivity |
| QVQLVESGGGLVQAGGSLRLSCAASGSTFVKNAMGWYRQAPGKERELVAAISYRGGRTYYADSVKGRFTISRDNAKNTVYLQMNSLKPEDTAVYYCAADYISVYGYEYYYWGQGTQVTVSS | high polyreactivity |
| QVQLVESGGGLVQAGGSHRLSCAASGFTFVYYAMGWYRQAPGKERELVAAISARTSGTYYADSVKGRFTISRDNAKNTVYLQMNSLTPEDTAVYYCAAGYSYVYWSESAYDYWGQGTQVTVSS | low polyreactivity |
| QVQLVESGGGLVQAGGSLRLTCAASGFIYYYNAMGWYRQAPGKERQLVAAISASGDRTYYADSVKGRFTISRDNAKNTVYLQMNSLKPEDTAVYYCAARSQGARYSSRRRFGDYWGQGTQVTVSS | high polyreactivity |
| QVQLVESGGGLVQAGGSLRLSCAASGSIIHFYAMGWYRQAPGKERELVAAITSGTSTYYADSVKGRFTISRDNAKNTVYLQMNSLKPEDTAVYYCAAEASHYYYNAYPSYGGSDYWGQGTQVNVSS | low polyreactivity |
| QVQLVESGGGLVQAGGSLRLSCAASGSTFYWYTMGWYRQAPGKERELVATITSVGRTNYADSVKGRFTISRDNAKNTVYLQMNSLKPEDTAVYYCAADSYSYRYYYWGQGTQVTVSS | high polyreactivity |
| HVPLVESGGGLVQAGGSLRLSCAASGSTFSVNVLGWYRLAAGKERELVAAITQAGGSTYYADSVKGRFSISRDTAKNTVYLQMNSLKPEDTAGYYCAVEKWSVYSFFLEGADYWGQGTQLTVSS | low polyreactivity |
| QVQLVESGGGLVQAGGRLRLSCAASGLIFDYYAMGWYRQAPGKERELVAAISYSGGRTYYADSVKCRFTISRDNAKNTVYLQMNSLKPEDTAVYYCNKVVLQPVIVDHDYWGQGTQVTVSS | low polyreactivity |
| QVQLVESGGGLVQAGGSLRLSCAASGSIFYYNMGWYRPAPGKERELVAAISGGGGSTFYADSVKGRFTISRDNAKNTVYLQMNSLKPEDTAVYYCAARATTRRKKRMDYWGQGTQVTVSS | high polyreactivity |
| QVHLVESGGGLVQAGGSLRLSCAASGRTFIFYAMRWYRQAPGKERELVATISRSAGSTYYADSVKGRFTISRDNAKNTVYLQMNSLKPEDTAVYYCATQSRHYRGGKYYYWGQGTQVSVSS | high polyreactivity |
| QVQLVESGGGLVQAGGSLRLSCAASGNTFFLYAMGWYRQAPGKERELVAVISASGGSTYFADSVKGRFTISRDNAKNTVYLQMNSVKPEDTAVYYCAKTPRTYYRYRNAFHYYYWGQGTQVTVSS | high polyreactivity |
| QVQVVESGGGLVQAGGSLRLSCAASGSTFGYYAMGWYRQAPGKERELVAAISGTGSTYYADSVKGRFTISRDNAKNTVFLQMNSLKPEDTAVYYCAAYPRGSQRYNYWGQGTQVTVSS | high polyreactivity |
| QVQLVESVGGLVQAGGSLRLSCAASGRTLRYYAMGWYRQAPGKERELVATITRRSGSTYYADSVKGRFTISRDNAKNTVYLQMNSLKPEDTAVYYCNAVWRPGERDYWGQGTQVTVSS | low polyreactivity |
| QVQLVESVGGVVQAGGSLRLSCAASGSIFRWNAMGWYRQARGKEWELVAVNTWRGGRTYYADSVKGRFTFSRDNAKKTVYLQMNSLNPEYTSFSYCAKGRLVTTLFGHYATCEYDSWGHGTQVTVSS | high polyreactivity |
| QVQLVESVGGLVQAGGSLRLSCASSGSTFGFNAIGWYRKAPVKERELVAANTFSGGTTYYADSVKGRFTISRDNAKNTVYLQMNSLKPEDTAGYYCNAEWWYQYTGPFSPWGEDYWGQGTQVTVSS | low polyreactivity |
| QVQLEESGGGLVQAGGSLRLSCAASGRIFPRYAMGWYRQAPGKERELVATISSGGSTYYADSVKGRFTISRDNATNTVYLQMNSLTPEDTAVYYCAARKRPYSVINGMDYWGQGTQVTVSS | low polyreactivity |
| QVQLVESGGGLVQAGGSLRLSCAASGNTFYQYAMGWYRQAPGKERELVAAIDWSGGSTYADSVKGRFTISRDNAKNTVYLQINSLKPEDTAVYYCNASVKPSNVWSRGYDYWGQGTQVTVSS | low polyreactivity |
